Experimental data as given in article PMC4757827 (2016).

Molecular target: recombinant importin α1 (construct not stated for this experiment) (Homo sapiens (Human), UniProt P52292)
Test: ELISA

- binding result: no binding
B1: IFN-γ (recombinant) (protein)
chain: QDPYVKEAENLKKYFNAGHSDVADNGTLFLGILKNWKEESDRKIMQSQIVSFYFKLFKNFKDDQSIQKSVETIKEDMNVKFFNSNKKKRDDFEKLTNYSVTDLNVQRKAIHELIQVMAELSPAAKTGKRKRSQMLFRG
